This data set deals with MBP-ZnF4 (ZnF_1012 fused to GCN4-p-LI coiled coil) (synthetic construct). Kind of data set: EMSA. As to conditions: 5 nM DNA, 5 nM protein, 5 mM Tris-HCl pH 8.5, 210 mM NaCl, 4.8% glycerol, 0.05% Tween 20, 8 mg/l BSA, 30 min, room temperature, 5% native PAGE in 0.5x Tris-borate.

As for “CcrM-methylated 152 bp PCR fragment with 2 ZnF binding sites”, the binding signal (fold weaker than unmethylated DNA (N1)) (adenine-N6 methylated, N6-methyladenine at GANTC sites (CcrM in vitro, both strands)) came to 70.

In the case of “unmethylated 152 bp PCR fragment with 2 ZnF binding sites”, the binding signal (fold preference over methylated DNA (N2)) (unlabelled competitors added) was determined as 70.

These data come from PMC5458116.
